Source: US20170072041A1 (OHIO STATE INNOVATION FOUNDATION, published 2017)

T1: native human DNase X (deoxyribonuclease 1-like 1) from THP-1 cell lysate (human, UniProt P49184 19-302, limits assumed)
T1 construct: GPI-anchored cell surface protein; also called DNase 1L1; DN1L1
T1 sequence (looked up): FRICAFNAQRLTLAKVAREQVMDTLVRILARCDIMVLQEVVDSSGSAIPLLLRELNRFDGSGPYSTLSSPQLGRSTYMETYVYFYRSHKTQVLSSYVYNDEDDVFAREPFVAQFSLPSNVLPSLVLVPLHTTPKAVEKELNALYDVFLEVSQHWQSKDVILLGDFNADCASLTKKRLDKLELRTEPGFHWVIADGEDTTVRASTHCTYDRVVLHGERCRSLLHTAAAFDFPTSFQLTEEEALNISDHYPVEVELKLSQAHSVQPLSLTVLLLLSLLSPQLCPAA

T2: mouse DNase X on wild-type bone marrow-derived macrophages (BMDMs) (mouse, UniProt Q9D7J6 38-314)
T2 construct: whole, on cells
T2 sequence: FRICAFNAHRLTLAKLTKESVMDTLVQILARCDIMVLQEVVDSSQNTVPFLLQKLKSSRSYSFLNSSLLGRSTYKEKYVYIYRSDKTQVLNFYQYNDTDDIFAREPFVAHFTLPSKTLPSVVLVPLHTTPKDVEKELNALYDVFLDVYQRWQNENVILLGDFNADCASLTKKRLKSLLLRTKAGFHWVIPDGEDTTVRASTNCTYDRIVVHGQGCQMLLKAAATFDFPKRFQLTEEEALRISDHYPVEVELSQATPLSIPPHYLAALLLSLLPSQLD

T3: human DNase X on the cell surface (HEK293 cells, human primary macrophages derived from peripheral blood … (human, UniProt P49184 19-302))
T3 construct: whole, on cells; Endogenous protein on non-permeabilised cells; also called cell surface-exposed DNase X; surface DNase X
T3 sequence: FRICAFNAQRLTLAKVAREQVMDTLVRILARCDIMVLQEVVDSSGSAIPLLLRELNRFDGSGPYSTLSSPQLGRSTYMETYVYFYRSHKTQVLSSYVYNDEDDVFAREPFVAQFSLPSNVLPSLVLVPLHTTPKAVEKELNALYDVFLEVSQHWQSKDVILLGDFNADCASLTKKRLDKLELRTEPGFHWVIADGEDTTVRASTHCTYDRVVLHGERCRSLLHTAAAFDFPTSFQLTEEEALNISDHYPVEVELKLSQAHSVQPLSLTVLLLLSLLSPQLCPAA


Legend:
[1] = target: mouse DNase X on wild-type bone marrow-derived macrophages (BMDMs) (mouse) (UniProt Q9D7J6); experiment: cell-based or functional assay
[2] = target: T1, native human DNase X (deoxyribonuclease …); experiment: far-Western blot, THP-1 cell lysate, anti-DNase X
[3] = target: T2, mouse DNase X on wild-type bone …; experiment: bead binding to BMDMs of wild-type and DNase X-/- mice, 30 min at 4 C
[4] = target: T3, human DNase X on the cell surface …; experiment: immunofluorescence of non-permeabilised HEK293 cells incubated with coated beads

Molecule | decrease in E. chaffeensis binding and entry into BMDMs at 4 h pi, DNase X-/- against wild type [1] [%] | binding result [2] | binding result [3] | binding result [4]
native full-length EtpE (ECH1038, entry triggering protein of Ehrlichia) of E. chaffeensis Arkansas (ligand) | 60 | – | – | –
rEtpE-C (recombinant C-terminal region of EtpE/ECH1038, residues 1656-1963, C-terminal histidine-tagged fusion protein) (ligand, Used renatured on membrane or Ni matrix, or coated on 0.5 um latex beads; also called rEtpE-C-coated beads; not shown: C-terminal histidine tag from pET33b(+)) ELLSLVGGHRNASSNNANNGRSLSQGIRYKITFKISFAQNYFPVDEIIKLQQDANNMEYGVHGVHRTDIIALWSYISYASSKSKWLFKRYQSFAGLLFEIGAWGKCTSAERVFFTSMNRYSEKLPLKVYNFIRKITTGDFARKFSGMQSLYTYKQRVYDYVMHCVLRGGLGGECSDMTLREISNELHKLKQEIYSNYDVFRDLGITNGQQEVLLLINVMMLNYAMSDLLVSTTQVNSMLADVRSSLSRTAHCLPYGTVSQLQRSVSHMKYGEYSNYRASVVALWACISCLASFNDDMEPLIKLMLEGD | – | binds | binds | binds
